{
  "source": "paper PMC9772109",
  "biological_target": "recombinant stabilized HA trimer of H1N1 virus A/Solomon Islands/3/2006 (H1 SI06) (influenza A virus A/Solomon Islands/3/2006 (H1N1))",
  "test": "cryo-EM structure",
  "data": [
    {"substance": "recombinant stabilized HA trimer of H1N1 virus A/Solomon Islands/3/2006 (H1 SI06) (natural protein)", "values": [
      {"measurement": "stoichiometry N", "value": 3}
    ]}
  ]
}
